Experimental data from patent US20200292534A1.

T1: NLpoly11S
T1 chain: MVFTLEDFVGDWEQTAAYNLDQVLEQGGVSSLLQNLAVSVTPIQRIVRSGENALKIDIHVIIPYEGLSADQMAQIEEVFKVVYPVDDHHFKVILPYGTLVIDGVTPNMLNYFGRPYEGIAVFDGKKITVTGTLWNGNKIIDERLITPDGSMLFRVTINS


Biological target: T1, NLpoly11S
Test: luminescence complementation titration, one-site specific binding fit

Binder | Bmax | Kd
VTGYRLFKEAS (modifications not checked) [array2.8] | 3930 | 2.57 µM
VEGYRLFKEES (modifications not checked) [array2.63] | 17300 | 220 µM
VEGYRLFKQEL (modifications not checked) [array2.87] | 1790 | 12.6 µM
VTGYRLFEQAS (modifications not checked) [array2.23] | 3820 | 4.17 µM
VEGYRLFKEEL (modifications not checked) [array2.90] | 12200 | 101 µM
VEGYRLFQKES (modifications not checked) [array2.66] | 3490 | 2.87 µM
VEGYRLFQQAL (modifications not checked) [array2.95] | 38200 | 18.8 µM
VEGYRLFEKIL (modifications not checked) [array2.100] | 35000 | 10.6 µM
VEGYRLFEQES (modifications not checked) [array2.78] | 39400 | 252 µM
VEGYRLFEKAL (modifications not checked) [array2.101] | 6370 | 12.6 µM
VEGYRLFKQIL (modifications not checked) [array2.85] | 31400 | 10.3 µM
VTGYRLFQQES (modifications not checked) [array2.15] | 5200 | 7.49 µM
VEGYRLFEKES (modifications not checked) [array2.75] | 1170 | 2.97 µM
VEGYRLFKQES (modifications not checked) [array2.60] | 4350 | 10.6 µM
VEGYRLFEQIS (modifications not checked) [array2.76] | 18000 | 52.8 µM
VTGYRLFEQIS (modifications not checked) [array2.22] | 121000 | 10.8 µM
VEGYRLFEKEL (modifications not checked) [array2.102] | 962 | 5.79 µM
VEGYRLFQQAS (modifications not checked) [array2.68] | 3750 | 20 µM
VEGYRLFEKAS (modifications not checked) [array2.74] | 3810 | 4.14 µM
VEGYRLFKQIS (modifications not checked) [array2.58] | 21500 | 2.09 µM
VTGYRLFQEES (modifications not checked) [array2.18] | 5110 | 67.3 µM

Binder | Bmax | Kd
VEGYRLFQEIS (modifications not checked) [array2.70] | 29200 | 230 µM
VEGYRLFEQAS (modifications not checked) [array2.77] | 26900 | 48.3 µM
VEGYRLFKQAS (modifications not checked) [array2.59] | 2300 | 2.09 µM
VEGYRLFQEAL (modifications not checked) [array2.98] | 2700 | 99.9 µM
VTGYRLFKEIS (modifications not checked) [array2.7] | 32000 | 4.44 µM
VEGYRLFKEIS (modifications not checked) [array2.61] | 5460 | 14.4 µM
VTGYRLFKEES (modifications not checked) [array2.9] | 1450 | 3.86 µM
VTGYRLFEQES (modifications not checked) [array2.24] | 1830 | 7.83 µM
VEGYRLFEEAS (modifications not checked) [array2.80] | 383000 | 1420 µM
VEGYRLFKEIL (modifications not checked) [array2.88] | 9830 | 17.8 µM
VEGYRLFEKIS (modifications not checked) [array2.73] | 22500 | 2.15 µM
VEGYRLFKEAL (modifications not checked) [array2.89] | 5570 | 42.4 µM
VEGYRLFKEAS (modifications not checked) [array2.62] | 2380 | 22.1 µM
VEGYRLFKQAL (modifications not checked) [array2.86] | 2300 | 2.27 µM
VTGYRLFQEIS (modifications not checked) [array2.16] | 1320 | 2.56 µM
VEGYRLFQQEL (modifications not checked) [array2.96] | 105000 | 99.4 µM
VEGYRLFQEAS (modifications not checked) [array2.71] | 44900 | 24 µM
VEGYRLFQQIS (modifications not checked) [array2.67] | 5220 | 8.14 µM
VEGYRLFQQIL (modifications not checked) [array2.94] | 2280 | 9.39 µM
VEGYRLFEQAL (modifications not checked) [array2.104] | 9880 | 336 µM

Now from value to binder:

Bmax | Kd | Binder
19400 | 0.876 µM | VTGYRLFQQIS (modifications not checked) [array2.13]
15900 | 0.641 µM | VEGYRLFKKAS (modifications not checked) [array2.56]
36300 | 1.79 µM | VTGYRLFEKAS (modifications not checked) [array2.20]
50500 | 2.08 µM | VEGYRLFQKIL (modifications not checked) [array2.91]
31000 | 1.95 µM | VTGYRLFKQAS (modifications not checked) [array2.5]
4090 | 1.69 µM | VEGYRLFQKEL (modifications not checked) [array2.93]
135000 | 0.0133 µM | VTGYRLFKKIS (modifications not checked) [array2.1]
20800 | 1.59 µM | VEGYRLFKKAL (modifications not checked) [array2.83]
4350 | 1.11 µM | VTGYRLFQQAS (modifications not checked) [array2.14]
7830 | 1.41 µM | VEGYRLFKKEL (modifications not checked) [array2.84]
3370 | 0.891 µM | VEGYRLFKKES (modifications not checked) [array2.57]
42400 | 0.078 µM | VEGYRLFKKIS (modifications not checked) [array2.55]
17200 | 0.417 µM | VTGYRLFQKES (modifications not checked) [array2.12]
123000 | 0.605 µM | VTGYRLFEKIS (modifications not checked) [array2.19]
113000 | 0.0812 µM | VTGYRLFQKIS (modifications not checked) [array2.10]
8620 | 1.49 µM | VTGYRLFEKES (modifications not checked) [array2.21]
43400 | 0.563 µM | VEGYRLFKKIL (modifications not checked) [array2.82]
10600 | 1.93 µM | VEGYRLFQKAS (modifications not checked) [array2.65]
36500 | 0.586 µM | VEGYRLFQKIS (modifications not checked) [array2.64]
80900 | 0.749 µM | VTGYRLFQKAS (modifications not checked) [array2.11]
5010 | 1.35 µM | VTGYRLFKQES (modifications not checked) [array2.6]
12300 | 2.02 µM | VEGYRLFQKAL (modifications not checked) [array2.92]
104000 | 0.241 µM | VTGYRLFKKAS (modifications not checked) [array2.2]
